Reference: patent US20040235112

Experiments:
GST-ATF2 = target: T1, GST-ATF2 (UniProt P15336)
T1 sequence: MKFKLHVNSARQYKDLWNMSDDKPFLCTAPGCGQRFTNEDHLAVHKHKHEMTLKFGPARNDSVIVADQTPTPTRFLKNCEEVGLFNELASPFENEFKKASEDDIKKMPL

GST-JNK2 = GST-JNK2 (UniProt P45984)
GST-cJun(1-79) = GST-cJun(1-79) (UniProt P05412)
GST-p38 = GST-p38 (UniProt Q16539)
Sequence of GST-p38 (Q16539 whole entry): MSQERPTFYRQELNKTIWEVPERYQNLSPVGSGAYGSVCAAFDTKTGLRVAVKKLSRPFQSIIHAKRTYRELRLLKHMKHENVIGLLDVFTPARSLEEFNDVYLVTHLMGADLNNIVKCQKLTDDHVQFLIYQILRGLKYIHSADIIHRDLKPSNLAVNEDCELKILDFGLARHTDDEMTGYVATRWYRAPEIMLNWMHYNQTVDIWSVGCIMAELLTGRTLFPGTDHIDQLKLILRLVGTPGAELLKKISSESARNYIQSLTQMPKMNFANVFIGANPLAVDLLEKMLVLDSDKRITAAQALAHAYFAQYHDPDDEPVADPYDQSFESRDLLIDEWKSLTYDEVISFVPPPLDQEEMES

Sequence of GST-cJun(1-79) (P05412 1-79): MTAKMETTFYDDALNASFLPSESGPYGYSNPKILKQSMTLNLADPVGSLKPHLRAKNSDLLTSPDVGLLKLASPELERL
Sequence of GST [GST: P08515] (P08515 whole entry): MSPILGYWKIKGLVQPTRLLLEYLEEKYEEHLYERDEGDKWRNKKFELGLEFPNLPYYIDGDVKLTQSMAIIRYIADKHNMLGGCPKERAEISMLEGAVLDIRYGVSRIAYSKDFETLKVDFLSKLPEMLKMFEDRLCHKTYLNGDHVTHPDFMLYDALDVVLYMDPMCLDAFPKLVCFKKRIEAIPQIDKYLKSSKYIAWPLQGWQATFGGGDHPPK

Substance | phosphorylation of substrate in in vitro kinase assay ([γ-32P]ATP, SDS-PAGE, autoradiography) (GST [GST: P08515]) | phosphorylation of GST-ATF2 in coupled in vitro kinase assay (GST-ATF2) | phosphorylation of substrate in in vitro kinase assay ([γ-32P]ATP, SDS-PAGE, autoradiography) (GST-JNK2) | phosphorylation of GST-Jun(1-79) in coupled in vitro kinase assay (GST-cJun(1-79)) | phosphorylation of substrate in in vitro kinase assay ([γ-32P]ATP, SDS-PAGE, autoradiography) (GST-p38) | phosphorylation of substrate in in vitro kinase assay ([γ-32P]ATP, SDS-PAGE, autoradiography) (His-ERK1[K52R]) | phosphorylation of GST-p38 in immune complex kinase assay (HeLa lysates, anti-HA 12CA5 immunoprecipitate) (GST-p38)
GST-MEK6 | MEK6 efficiently phosphorylated p38 but none of the other substrates | ATF2 was not directly phosphorylated by MEK6 | MEK6 efficiently phosphorylated p38 but none of the other substrates | MEK6 did not cause increased phosphorylation of Jun (GST-Jun(1-79) ...) either directly or in combination with JNK2 | MEK6 efficiently phosphorylated p38 but none of the other substrates | MEK6 efficiently phosphorylated p38 but none of the other substrates | –
3xHA-MEK6 | – | – | – | – | – | – | MEK6 activation by anisomycin as measured by its ability to phosphorylate p38, was observed as early as 10 min after treatment
